Legend:
HD-PTP(1–361;T145R) = target: T1, HD-PTP(1–361;T145R) (human, UniProt Q9H3S7 1-361, T145R); experiment: ITC
T1 sequence: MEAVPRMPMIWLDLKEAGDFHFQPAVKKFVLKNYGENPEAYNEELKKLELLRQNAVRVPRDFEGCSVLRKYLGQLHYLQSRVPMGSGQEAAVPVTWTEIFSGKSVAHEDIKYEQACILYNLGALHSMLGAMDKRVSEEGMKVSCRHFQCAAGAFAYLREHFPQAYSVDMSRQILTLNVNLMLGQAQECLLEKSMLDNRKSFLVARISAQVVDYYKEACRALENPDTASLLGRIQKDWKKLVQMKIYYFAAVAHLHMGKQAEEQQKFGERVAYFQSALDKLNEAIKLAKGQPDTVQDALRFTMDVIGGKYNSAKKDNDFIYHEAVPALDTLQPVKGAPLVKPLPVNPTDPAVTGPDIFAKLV

HD-PTP(1–361;T145K) = target: T2, HD-PTP(1–361;T145K) (human, UniProt Q9H3S7 1-361, T145K); experiment: ITC
T2 sequence: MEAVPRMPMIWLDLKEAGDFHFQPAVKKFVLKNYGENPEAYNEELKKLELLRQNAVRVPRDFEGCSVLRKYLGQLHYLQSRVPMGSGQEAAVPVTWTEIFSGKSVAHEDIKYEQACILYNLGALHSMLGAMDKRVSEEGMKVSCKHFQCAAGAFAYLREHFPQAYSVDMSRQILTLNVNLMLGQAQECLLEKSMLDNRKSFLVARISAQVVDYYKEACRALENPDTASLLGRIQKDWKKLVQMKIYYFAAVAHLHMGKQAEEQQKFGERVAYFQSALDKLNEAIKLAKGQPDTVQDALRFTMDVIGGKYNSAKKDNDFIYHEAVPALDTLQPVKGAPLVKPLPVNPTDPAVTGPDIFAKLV

Kd (HD-PTP(1–361;T145R)): 3.89 µM
Kd (HD-PTP(1–361;T145K)): 4.02 µM
B1: CHMP4B(207–224) (peptide)
peptide: KEEEDDDMKELENWAGSM
